From the supplement of paper PMC10567573

B1: EFHC1 (parent)
chain: NIYYYLEDDSMSVIEPVVENSGIL

Variants of: B1
Experiment: protein stability index of a GFP-peptide fusion (GPS, HEK-293T) (PSI 1-6); higher = more stable
Settings: c terminus: a fixed tail appended
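Also: lentivirally expressed fusions sorted by FACS into six bins by GFP to DsRed ratio, PSI derived from sequencing read proportions per bin multiplied by bin number.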

Protein stability index, by site and new letter:
V17: C 1.85; N 1.76; T 2.32; W 1.94; D 2.6; G 1.95; P 2.85; S 1.88; A 2.1; Y 1.72; K 2.31; I 1.62; E 3.08; M 2.07; F 2.88; H 2.15; R 1.98; Q 2.41; L 1.74
E7: D 1.89; H 1.3; K 1.91; S 1.46; G 1.65; F 1.13; P 1.92; T 2.38; C 2.43; R 2.52; L 2.33; W 1.41; I 2.12; Y 2.31; M 2.09; Q 1.94; N 2.72; A 1.4
Y5: G 3.27; I 1.92; C 2.45; L 2.51; K 3.41; V 2.39; M 2.36; Q 2.92; H 2.69; E 3.62; A 3.1; T 2.79; P 3.83; D 3.64; F 1.94; W 1.75; S 3.23; N 2.78; R 3.35
D8: P 2.23; V 3.11; Q 1.91; S 2.6; M 2.71; H 1.89; N 2.01; A 1.94; C 2.56; G 2.47; R 2.35; T 1.83; E 1.94; Y 2.03; K 1.6; W 4.45; F 2.17
M11: A 2.75; Y 2.17; T 2.38; N 3.06; K 3.24; H 2.56; W 1.76; Q 2.55; L 2.07; D 3.39; V 2.2; R 2.32; P 3.39; G 2.05; C 2.19; S 2.46; E 2.68; F 1.7; I 2.51
P16: H 2.45; R 2.11; Q 2.17; A 2.38; F 2.73; K 2.58; D 2.2; N 1.65; S 1.83; G 1.92; E 2.37; W 2.61; C 2.54; Y 1.42; T 2.94; V 2.86; I 2.75; M 2.57
I2: K 3.44; M 2.96; G 3.21; W 2.35; Q 3.33; N 3.23; E 3.79; Y 2.07; H 2.72; V 2.13; S 3.4; F 1.82; P 3.82; T 3.29; L 2.05; R 3.03
N20: E 2.46; A 1.69; F 1.48; D 1.7; C 1.93
I14: Y 1.93; E 3.1; D 3.11; L 1.95; A 2.42; P 3.08; R 2.78; F 1.98; K 3.07; W 1.86; M 2.09; G 2.51; V 2.31; T 2.1; N 2.62; C 2.28; Q 1.85; S 2.43; H 2.45
V13: M 2.23; C 1.85; L 2.52; E 3.1; Q 2.35; K 2.08; R 1.81; N 2.82; S 2.17; I 2.15; Y 1.31; P 2.5; A 1.72; W 2.11; H 2.24; G 2.42; T 2.21; F 2.16; D 2.86
S10: H 2.09; F 2.3; N 3.24; L 1.14; E 2.57; A 2.02; T 1.93; M 2.13; C 1.71; Y 1.9; R 3.15; W 2.02; G 2.08; Q 2.05; K 2.18; P 2.03; D 2.36; I 2.1; V 1.68
V18: K 2.33; W 1.13; M 1.66; T 2.23; L 2.16; Y 1.67; P 2.38; H 2.11; S 2.67; G 3.04; N 2.6; I 2.23; F 1.85; E 2.69; Q 2.38; A 2.19; R 1.92; D 2.99; C 1.82
Y4: E 2.78; C 2.31; G 3.49; A 2.12; K 2.66; Q 2.39; S 3.48; L 1.42; T 2.91; P 4.01; R 2.51; W 2.99; M 2.18; F 1.85; I 1.49; V 1.24; H 2.33; D 2.74; N 2.35
E19: H 2.01; S 1.35; D 2.01; V 2; T 1.66; Q 2.16; N 1.69; F 1.89; C 1.39; P 2.34; I 1.77; Y 2.53; K 2.23; L 1.42; R 1.67; M 1.86; A 1.59; G 1.74
E15: Y 1.02; A 2.22; M 2.85; W 2.39; P 2.38; N 2.79; Q 1.61; H 1.75; S 1.7; C 3.27; G 1.6; F 2.48; I 3.11; L 2.31; T 1.42; K 2.34; D 1.96; R 1.32
Y3: I 2.23; S 3.2; V 2.38; R 3.04; L 2.15; W 1.82; E 3.76; N 3.38; P 3.39; M 2.17; G 3.43; F 2.07; K 2.72; A 2.85; Q 3.12; C 2.9; T 3.64; H 2.81; D 4.08
S12: T 1.58; V 1.86; M 1.8; D 3.05; W 2.16; K 1.85; Y 1.2; P 2.15; Q 1.92; A 1.98; N 2.08; H 2.53; F 2.77; G 2.37; R 1.73; C 1.61; E 2.64
L6: W 1.52; M 2.25; K 2.68; Y 2.22; G 3.65; S 2.5; I 2.23; C 2.24; T 2.71; P 4.08; A 3.01; Q 2.84; F 1.72; H 3.03; N 3.57; E 2.88; R 2.93; V 2.23; D 3.26
D9: L 1.68; N 1.69; Y 4.3; G 2.12; P 2.02; T 1.37; R 2.09; C 1.76; S 1.68; K 1.83; A 2.09; F 2.08; I 1.56; W 1.54; E 2.11; H 2.13; Q 2.88
